Results on one molecule are retold here after PMC8939769, “The SARS-CoV-2 monoclonal antibody combination, AZD7442, is protective in non-human primates and has an extended half-life in humans” (Science Translational Medicine, 2022).

In assay [1] the target is T1, SARS-CoV-2 S trimer (S2P ectodomain protein) (SARS-CoV-2, ancestral (Wuhan-Hu-1 …, UniProt P0DTC2, stabilised)). Kind of assay: cell-based or functional assay.
In assay [2] the target is T1, SARS-CoV-2 S trimer (S2P ectodomain …). Kind of assay: not stated; binding kinetics (ka, kd, KD) on the SARS-CoV-2 S trimer (S2P ectodomain protein); representative of at least two independent assays; assay details in the Supplementary materials. Conditions: both partners purified.

B1: AZD8895 (tixagevimab) (antibody, V domains shown)
VH: QMQLVQSGPEVKKPGTSVKVSCKASGFTFMSSAVQWVRQARGQRLEWIGWIVIGSGNTNYAQKFQERVTITRDMSTSTAYMELSSLRSEDTAVYYCAAPYCSSISCNDGFDIWGQGTMVTVSS
VL: not shown
On to B1, for which the “neutralization of the USA-WA1/2020 strain of SARS-CoV-2 in vitro, IC50” value in assay [1] was determined as 9 ng/mL. This molecule also yielded a Kd in assay [2] of 2.8 pM.

The term Kd denotes the concentration at which binding is half-saturated. A higher Kd goes with lower affinity.
